Earlier results as cited in patent publication US20070155650A1, “Use of cathepsin z inhibitors for the treatment of rhuematoid arthritis and other autoimmune diseases” (AVENTIS PHARMACEUTICALS INC., priority 2003, published 2007).
Read-outs that look alike come from different tables or passages of the source. Values belong to the molecule of their own block, whether it stands above or below them.

How the values were obtained:
[1] = target: Cathepsin B (Homo sapiens, UniProt P07858); conditions: result in words
[2] = target: Cathepsin Z (Homo sapiens, UniProt Q9UBR2); conditions: result in words
Chain of Cathepsin Z (Q9UBR2 62-303): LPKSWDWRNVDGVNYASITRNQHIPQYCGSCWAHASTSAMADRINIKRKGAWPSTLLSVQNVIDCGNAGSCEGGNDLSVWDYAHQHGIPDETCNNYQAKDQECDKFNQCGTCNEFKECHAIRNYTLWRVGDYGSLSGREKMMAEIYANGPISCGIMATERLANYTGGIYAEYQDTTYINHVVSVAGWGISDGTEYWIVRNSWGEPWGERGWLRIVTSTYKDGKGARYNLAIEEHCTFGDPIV

- Cathepsin Z activity inhibited or not [2]: inhibited
B1: stefin B: protein inhibitor shown to inhibit Cathepsin Z activity (protein, UniProt P04080 1-98, looked up)
Cystatin-B: MMCGAPSATQPATAETQHIADQVRSQLEEKENKKFPVFKAVSFKSQVVAGTNYFIKVHVGDEDFVHLRVFQSLPHENKPLTLSNYQTNKAKHDELTYF

- Cathepsin Z activity inhibited or not [2]: inhibited
B3: stefin A: protein inhibitor shown to inhibit Cathepsin Z activity (protein, UniProt P01040 1-98, looked up)
Cystatin-A: MIPGGLSEAKPATPEIQEIVDKVKPQLEEKTNETYGKLEAVQYKTQVVAGTNYYIKVRAGDNKYMHLKVFKSLPGQNEDLVLTGYQVDKNKDDELTGF

- Cathepsin Z activity inhibited or not [2]: inhibited
B4: cystatin C: protein inhibitor shown to inhibit Cathepsin Z activity (protein, UniProt P01034 27-146, looked up)
Cystatin-C: SSPGKPPRLVGGPMDASVEEEGVRRALDFAVGEYNKASNDMYHSRALQVVRARKQIVAGVNYFLDVELGRTTCTKTQPNLDNCPFHDQPHLKRKAFCSFQIYAVPWQGTMTLSKSTCQDA

Further lines, the molecule ahead of its results:

Molecule: CCCNC(=O)[C@H]1O[C@@H]1C(=O)N[C@H](C(=O)N1CCC[C@H]1C(=O)O)[C@@H](C)CC [CA-074]
- Cathepsin B activity inhibited [1]: block Cathepsin B activity
- Cathepsin B activity inhibited ([1]; listed as CA-704): known synthetic inhibitors of Cathepsin B
- Cathepsin Z activity inhibited or not [2]: inhibited

B2: chicken cystatin: protein inhibitor shown to inhibit Cathepsin Z activity (protein, UniProt P01038 24-139, looked up)
Cystatin: SEDRSRLLGAPVPVDENDEGLQRALQFAMAEYNRASNDKYSSRVVRVISAKRQLVSGIKYILQVEIGRTTCPKSSGDLQSCEFHDEPEMAKYTTCTFVVYSIPWLNQIKLLESKCQ
- Cathepsin Z activity inhibited or not [2]: inhibited
